In paper doi:10.1101/2020.08.16.253294 (bioRxiv, 2020):
Positions count from the first letter of the chain named. Names and notes keep the numbering of the source.

B1: extracellular domain of ZIP4 from Pteropus alecto (black fruit bat), wild type (domain or fragment)
chain: SGQGALDRVALGGLLNTLAARVHCTSGPCGKCLSVDDLLALGRPEEPGHLARLSAAAALYLSDPEGTCEDIRAGRWASRADHLLALLEGPKALAPGLSRLLQRIQAQTTGQPSAGEACVDPPQLLREAGVAGAPGSPGPVLATLLEHVGRGSCFHTLPTPQYFVDFVFQQSHGNTPNISVAELAALMQRLGVGGVTETHSDHHHQEKRVNRQGPTPLTAPNSSSDTWDTVCLSARDVMAVYGLSEQTGVTPEAWAQLSPALLQQQLSGACSPQPSHPAQNQLSQAEK
B2: pZIP4-ECD C64R variant (domain or fragment)
chain: B1 chain with C29R
B3: pZIP4-ECD R87C variant (domain or fragment)
chain: B1 chain with R52C
B4: pZIP4-ECD A91T variant (domain or fragment)
chain: B1 chain with A56T
B5: pZIP4-ECD P193L variant (domain or fragment)
chain: B1 chain with P158L
B6: pZIP4-ECD Q299H variant (domain or fragment)
chain: B1 chain with Q264H

Biological target: the molecule itself
Assay: SEC

| Protein | stoichiometry N |
| --- | --- |
| B1 | 2 |
| B2 | 2 |
| B3 | 2 |
| B4 | 2 |
| B5 | 2 |
| B6 | 2 |
